This is an account of results in publication PMC12152739.

The subject of this data set is CC(C)(O/N=C(\C(=O)N[C@@H]1C(=O)N2C(C(=O)[O-])=C(C[N+]3(CCNC(=O)c4ccc(O)c(O)c4Cl)CCCC3)CS[C@H]12)c1csc(N)n1)C(=O)O. In words: purified protein, by the assay type. Conditions: other: FDC hydrolysis by VIM-2, 30 °C, pH 7.5.

As to VIM-2 (Escherichia coli), the kcat was 1.1 ± 0.14 s⁻¹.

By kcat is commonly meant the maximal rate divided by the concentration of active sites.
